Data on 41 sequences can be found in the nanobody polyreactivity screen of Harvey et al. (2022).

The series can be described thus: yeast display, Sf9 membrane polyspecificity reagent, FACS + sequencing; frameworks hold sequencing errors. In short, it runs like this: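 Sorting gates, low and high (top ~1%), were placed on anti-HA fluorescence to track expression and on streptavidin fluorescence to track reagent binding. A clone's polyreactivity label is taken from the gate it came out of. The reagent was 10% biotinylated, detergent-solubilized Sf9 membrane, applied for 1 hour at 4 °C to galactose-induced yeast display cells.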
In the case of “QLQLVESGGGLVQAGGSLRLSCAASGSIFRVYAMGWYRQARGKERELVAAISSSGVRTSYADSVKGRFTISRDNAKNTVYLQMNSLKPEDTAVYYCADRYPYGYYHWGQGTQVTVSS”, the “polyreactivity (PSR sort gate)” value is “high polyreactivity”.

With “QLQLVESGGGLVQAGGSLRLSCAASGSIFSFYAMGGYRQAPGKERELVATITYGSGSTHYADSVKGRFTISRDNAKNTVYLQLNSLKPEDSAVYYCAGETVRYEWGDSPAALFDYWGQGTQVTVSS”, the “polyreactivity (PSR sort gate)” value is recorded as “low polyreactivity”.

“QLQLVESGGGLVQAGGSLRLSCAASGSIFYQYVMGWYRQAPGKEREFVAAIRYTGVGTYYADSVKGRFTLSRDNAKYTVYLQMNSLKPEDTAVYYCAARSYNRRARYDYWGQGTQVNVSS”: the “polyreactivity (PSR sort gate)” value was “high polyreactivity”.

Turning to “QLQLVESGGGLVQAGGSLRLSCAASGSIIGYYAMGWYRQAHGKERELVAAITASGGSTYYADSVKGRFTISRDNAKNTVYLQMNILKPEDTAVYYCAAGTHTDYGRYYYWGQGTQVTVSS”, the “polyreactivity (PSR sort gate)” value is on record as “low polyreactivity”.

For “QLQLVESGGGLVQAGGSLRLSCAASGSTFALYAMGWYRQAPGKERELVAAITSDGSTKYADSVKGRFTISRDNAKNTVYLQMNSLKPEDTAVYYCNTEYYYPGIPYDYWGQGTQVTVSS”, the “polyreactivity (PSR sort gate)” value is “high polyreactivity”.

Turning to “QLQLVESGGGLVQAGGSLRLSCAASGSTFHLYAMGCYREAPWNEREFVAAIRGRGGNTYADSVKGRFTISRDNAKNTVYLPMNSLKPEDTAVYYCAAAFYYYGDSDNWGQGTQVTVSS”, the “polyreactivity (PSR sort gate)” value is “low polyreactivity”.

For the sequence “QLQLVESGGGLVQAGGSLRLSCAASGSTFSPYAMGWYRQAPGKERDLVAGITSSGGDTYYADSVKGRFTISRDNAKNTVYLQMNSLKPEDSAVYYCAADWWVLGQLWFDYWGQGTQVTVSS”, the “polyreactivity (PSR sort gate)” value is recorded as “low polyreactivity”.

For the sequence “QLQLVESGGGLVQAGGSLRLSCAASGSTFSPYAMGWYRQAPGKERELVAAISASGGGTYYADSVKWRLTISRDNAKNTVYLQMNSLKPEDTAVYYCARDYGWDISKGRYGYWGQGTQVTVSS”, the “polyreactivity (PSR sort gate)” value is on record as “low polyreactivity”.

In the case of “QLQLVESGGGLVQAGGSLRLSCAASGSTFVVYARGWYRQAPGKERELVAAITRDDGRTYYADSVKGRFTISRDNAKNTVYLQMNSLKPEDTAVYYCAAGYSFGYGYWGQGTQVTVSS”, the “polyreactivity (PSR sort gate)” value is “low polyreactivity”.

Turning to “QLQLVESGGGLVQAGGSLRLSCAASGSTFWRYAMGWYRQAPGKERELVAAISWNGGSTYYADSVKGRFTISRDNAKNTVYLQMNSLKPEDTAVYYCAADYWFRYGTYEYWGQGTQGTVSS”, the “polyreactivity (PSR sort gate)” value is given as “high polyreactivity”.

On to “QLQLVESGGGLVQAGGSLRLSCAASGYIFEFYAMGWYSQARGKERELVDAIRWNGGTYYADSVKGRFTISRDNAKNTVYLQMNSLKPEDTAVYDCSASRYYRYKIGYVSRAMDYWGQGTQVTVSS”, for which the “polyreactivity (PSR sort gate)” value is reported as “high polyreactivity”.

Take “QLQLVESGGGLVQAGGSLRLSCAGSGGTFRVYAMGWYRQATGKERALVAAITGRGGSTYYADSVKGRFTISRDTAKNTVYLQMNSLKAEDTAVYYCAAVSFSDGSPYNYWGLGTQVTVSS”: the “polyreactivity (PSR sort gate)” value was “low polyreactivity”.

“QLQLVESGGGLVQAGGSLRLSCAYYGFIFYWNAMGWYRHAPGKESQFVATITWSGGSTYYADSVTGRFTISRDNAKNTVYLQMNSLKPEDTAVYSCAVSYLSTLGRSRSDYWGQGTQVTVSS”: the “polyreactivity (PSR sort gate)” value is recorded as “low polyreactivity”.

For “QLQLVESGGGLVQAGGSLRLSSAASGITLYQYAMGWYRQSPGKERELVAAISSSGGSTYYADSVKGRFTISRDNAKNTVYLQMNSLKPEETAVYYCAAADRFWYGYYQYDYWGQGTQVTVSS”, the “polyreactivity (PSR sort gate)” value was “high polyreactivity”.

As to “QLQLVESGGGLVQAGGSLSLTFAASGIISNYNAMGWYIQAPGKERELVSAISRSGTRKYYADSVKGRYTISRDNAKNTVYLQMNSLKPEDTAVYDCAAPSWSSKGYCKGYYWGQGTQVTVSS”, the “polyreactivity (PSR sort gate)” value is on record as “high polyreactivity”.

On to “QLQLVESGGGLVQAGRRLRLTCAASGSIFQGNVMGWYRQAPGKERELVAAITWSGGRTYYADSVKGRFTISRDHAKNTVYLQMNSMNPDDTAVYYCNAVIGRELDYWGQGTKVTVSS”, for which the “polyreactivity (PSR sort gate)” value was “high polyreactivity”.

Turning to “QLQLVESGGGLVQARGSLRLSCAASGYIFGSYAMGWDRQAPGKERELVAANSKSGGSTYYADSVKGRFTISRDYAKNTVYLQMNSLKPEDTAVYYCAAAGIGGGGWGQGTQVTVSS”, the “polyreactivity (PSR sort gate)” value is on record as “low polyreactivity”.

Regarding “QLQLVESGGGVVQAGGSLRLSCAATGRIDWNTMGWYRQAPGKERELVASISTGGGRTYYADSVKGRFTISRDNAKNTVYLQMISLKPEDTAVFYCNAVRTVWYRYEYGYWGQGTQVTVSS”, the “polyreactivity (PSR sort gate)” value was “high polyreactivity”.

Consider “QLQLVESGGRLVQAAVSLRLSFAASGRTFYPYAMGWYRPAPGKERELVAAITSRGASTYYADSVKGRFTISRDNAKNTVYLQMNSLKPEDTAVYYCNSGRTYRRLGDYLGQGTQVTVSS”, for which the “polyreactivity (PSR sort gate)” value was “high polyreactivity”.

As to “QLQLVESGGVLVQAGGSLRLSCAASGSTFRYNAMGWYRQAPGKERELVASITWSGGDTYYADSVKGRFTISRDNAKNTVYLQMNSLKPEDTAVYYCAKKGYASRYFIYDYWGQGTQVTVSS”, the “polyreactivity (PSR sort gate)” value is recorded as “low polyreactivity”.

For “QLQLVESRRGLVHAGGSLRLSSDASGRIFLYYAMGWYRQAPVKERELVARITSSGSTYYADSVKGLFTISRDNAKNTVYLQMNSLKPEDTAVYYCAADWYWGGIVDSWGQGTQVTVSS”, the “polyreactivity (PSR sort gate)” value is recorded as “high polyreactivity”.

Consider “QLQLVESVGGLVQAGGSLRLSCAASGGIFNVNALGWYRQAPGKERELVAAISLSGSNTYYADSVKGRFTISRDNAKNTVYLQMNSLKPEDTAVYYCNADYVYRRYGYWGQGTQVTVSS”, for which the “polyreactivity (PSR sort gate)” value is “high polyreactivity”.

In the case of “QLQLVETGGGLVQAGGSLRLSCAASGSIIAKNAKGWYSQAPGTDRELVAAISKSGGITYYADSVKGRFSISRDNAKNTVYLQINSLKPEDTAVYYCNALSAGYIGVASRYYYWGQGTQVTVSS”, the “polyreactivity (PSR sort gate)” value was “high polyreactivity”.

In the case of “QLQLVQSGGGLVQAGGSLRLSCASSGRTFTPNARGWYSQAPGKEREMVAAISWRGGSTYYADAVMGRFTISRVNGKYTVYLEMKSLKPEDTGVYYCKKRSDKSYTRTEYDNWRQGTQVTVSS”, the “polyreactivity (PSR sort gate)” value is “high polyreactivity”.

As to “QVEHVDSGGGLVQAGGSLRLSCAASGRTIWDYMGWYRQAPGKEREVVATITSSGGSTYYADSVKGRFTISRDNAKNTVYLQMNSLKPEDTAVYYCNADWYLWSTFAQGYGYWGQGTQVTVSS”, the “polyreactivity (PSR sort gate)” value is “high polyreactivity”.

Regarding “QVEHVESGGGLVQAGGSLRLSCAASGGTFSHNDMGWYRQAPGKERELVPSINSGGSTNYADSVKGRFTISRDNAKNTVDLQMNSLKPEDNAVYYCAADVEGWTVESDVYRVGYDYWGQCTQVTVSS”, the “polyreactivity (PSR sort gate)” value is on record as “low polyreactivity”.

In the case of “QVEHVESGGGLVQAGGSLRLSCAASGSIIVDNAMGWSRQAPGKDRELVAAISVGGGRTYYADSVKGRFTISRDNAKNTVYLQMNSLKPEDTAVYYCNRVPTRGPHGVWFGYCGQGTQVTVSS”, the “polyreactivity (PSR sort gate)” value was “high polyreactivity”.

With “QVELEESGGGLVQAGGSLRLSCAASGFIFRYYALGWYRPGPGTVRELVAVISSSGSTHYADSVKGRITISRDNAKNTVYLQMNSLKPEDTAVYYCAADGNVWSGPRYDYWGQGTQLTVSS”, the “polyreactivity (PSR sort gate)” value is “low polyreactivity”.

“QVELQVSGGGLVRAGGSLRLSCAASGNIFDADIMGWYRQAPGKERELVASITGGGSTSYAESAKGRFTISRDNAKNAVYLQMNRLKPEDTAVYYCAAAAYYADFDYWGQGTQVTVSS”: the “polyreactivity (PSR sort gate)” value is “low polyreactivity”.

Take “QVELVESGGGLGQAGGSLRLSCAASGLIFVLNDMGWYRLAPGKVRELVAAISYSGSSTYADSVKGRFTISRDNAKNTVYLQMNSLKPEDTAVYYCARGSKVRTRGVGYWGQGTQVTVSS”: the “polyreactivity (PSR sort gate)” value is “low polyreactivity”.

In the case of “QVELVESGGGLVQAGGSLRLSCAASGFTFGYNAMGWYRQAPGKERELVAAIRLSGSSTYYADSVKGRFTISRDNAKNTVYLQMNSLNPEDTAVYYCAADGISHWLYRYDYWGQGTQVTVSS”, the “polyreactivity (PSR sort gate)” value is “low polyreactivity”.

On to “QVELVESGGGLVQAGGSLRLSCAASGFTFQEYAMGWYRQAPGQETELVAAISTSGDYTYYADSVKGRFTISRDNAKHTVYFQMNSLKPEDTAVYYCATGVDTYSLTVEHDSWGQGTQLTVSS”, for which the “polyreactivity (PSR sort gate)” value is on record as “low polyreactivity”.

As for “QVELVESGGGLVQAGGSLRLSCAASGSTFDYNAMGWYRQAPGKERELVAAISRTANANYADSVKGRFTISRDNAKNTVYLQMNSLKPEDTSVYYCAADFRASKVHVRFCYWGQGTQVTVSS”, the “polyreactivity (PSR sort gate)” value was “low polyreactivity”.

For “QVELVESGGGLVQAGGSLRLSCAGSGIIFPYYVMGWYRQAPGKARELVAAINSGGRTYYADSVKGRFTISRDNAKNSVYLQMNSLNREDTAVYYCAATQSTNRMDHWGQGTQVTVSS”, the “polyreactivity (PSR sort gate)” value was “low polyreactivity”.

Consider “QVELVESGGGLVQAGGSLRLSCSASGSIFYKYAMGWYRQAPGKERELVAAIRVSGGSTYYADSVKGRFTISRDNAKNTVYLQMNSLKPEDTAVYYCAAESKFPWGYRYDYWGQGTQVTVSS”, for which the “polyreactivity (PSR sort gate)” value is given as “low polyreactivity”.

As to “QVELVESGGGLVQPGGSLRLSCAASGRTLSRYTMGWYRQAPGKERELVAAISTSGSTYYADSVKGRFTISRDNAKNTVYLQMNSLKPEDTAVYYCAADRFGIGGIRGNDYWGQGTQVTVSS”, the “polyreactivity (PSR sort gate)” value is given as “high polyreactivity”.

With “QVELVVSGGGLVQPGGSLRLSCAASGSTFFNNGMGWYRQSPGKERELVATITKRGGNTYYADSVKGRFTISRDNAKNTVYLQMNSLKPEDTAVYYCAALRYKLPLGYWGQGTQVTVSS”, the “polyreactivity (PSR sort gate)” value is listed as “high polyreactivity”.

With “QVHHVESCGGLVQAGGSLRLSCAASGRTFVYYAMGWYRQAPGKEREFVAAISRSGGRTSYAYSVKGRFTISRDNPKNTVYLPMNSLKPEDTAVYYCGAEKRTQPTSREYYWGQGTQVTVSS”, the “polyreactivity (PSR sort gate)” value is recorded as “high polyreactivity”.

With “QVHHVESGGGLVQAGGSLRLSCAASGRIFSYYAMGRYRPAPGKERELVAAITSRGTRTYYADSVKGRFTISRDNAKNTVYLQMNSLKPDDTAVYYCNVVSDIRLYFRFAYDYWGQGTQVTVSS”, the “polyreactivity (PSR sort gate)” value was “high polyreactivity”.

Regarding “QVHHVESGGGLVQAGGSLRLSCAASGRTFRYKAMGWYRQAPGKETELVARISRTGGRTYYADSVKGRFTISRDNAKTTVYLQMNSLKPEDTAVYYCNARKRYYSTRYNYWGQGTQVTVSS”, the “polyreactivity (PSR sort gate)” value is “high polyreactivity”.

For “QVHHVESGGGLVQAGGSLRLSCAASGSIFWTYAMGWYRQAPGKERELVAAITSGSSTKYADSVKGRFTISRDNAKNTVYLQMYSLKPEDTAVYYCNARSYRGYRGVFLYSGLLGSDYWGQGTQVTVSS”, the “polyreactivity (PSR sort gate)” value is reported as “low polyreactivity”.
